The values below come from patent EP4737484A1 (Phil Rivers Technology Co., Ltd, dated 2026).

In experiment [1] the target is T1, huIL-1β-His (human, UniProt P01584 117-269). Put plainly: ELISA, plate coated with huIL-1β-His, anti-human IgG Fc-HRP. In general terms: ELISA stands for enzyme-linked immunosorbent assay.
The target of experiment [2] is T1, huIL-1β-His. Put plainly: ELISA, plate coated with huIL-1β-His, anti-human IgG Fc-HRP; positive control.
Experiment [3] has as its target T2, huPD-L1-His (human, UniProt Q9NZQ7 19-238).
T2 construct: also called human recombinant protein huPD-L1-His; antigen PD-L1
The experiment in a line: ELISA, plate coated with huPD-L1-His, anti-human IgG Fc-HRP.

Experiment [4] has as its target T3, full-length human PD-L1 on huPD-L1-CHO-K cells (human, UniProt Q9NZQ7 19-290).
T3 construct: also called huPD-L1-overexpressing-CHO-K cells; CD3L-PD-L1-CHO
The experiment in a line: flow cytometry on huPD-L1-CHO-K cells, PE anti-human IgG Fc. A general note: A flow cytometer gives signals particle by particle.

Experiment [5] has as its target T2, huPD-L1-His. Put plainly: bridging ELISA: coated huIL-1β-Fc, antibody, then huPD-L1-His, anti-His-HRP.
Another experiment addresses T4, huIL-1β-Fc (human).
T4 construct: also called huIL-1β-Fe
Described as above.

The target in a further experiment is huPD-L1-Fc (human). Put plainly: bridging ELISA: coated huPD-L1-Fc, antibody, then huIL-1β-His, anti-His-HRP.
The target in experiment [6] is T1, huIL-1β-His. Described as above.

Residue numbers refer to the chain shown, from its start. Names may count otherwise.

B1: BsAb18 (bispecific antibody)
heavy: not shown
light: not shown
chain 1: not shown
chain 2: QVQLVESGGGVVQPGRSLRLSCAASGFTFSVYGMNWVRQAPGKGLEWVAIIWYDGDNQYYADSVKGRFTISRDNSKNTLYLQMNGLRAEDTAVYYCARDLRTGPFDYWGQGTLVTVSSASVAAPSVFIFPPSDEQLKSGTASVVCLLNNFYPREAKVQWKVDNALQSGNSQESVTEQDSKDSTYSLSSTLTLSKADYEKHKVYACEVTHQGLSSPVTKSFNRGEC
notes: Atezolizumab heavy (Knob) and light chain; Canakinumab VL-IgG1 constant region (hole); also called Construct BsAb18
On to B1, for which, in the experiment with huIL-1β-His [1], the binding result is “binds”.

B2: Canakinumab (antibody, human IgG1, kappa, V domains shown)
VH: QVQLVESGGGVVQPGRSLRLSCAASGFTFSVYGMNWVRQAPGKGLEWVAIIWYDGDNQYYADSVKGRFTISRDNSKNTLYLQMNGLRAEDTAVYYCARDLRTGPFDYWGQGTLVTVSS
VL: EIVLTQSPDFQSVTPKEKVTITCRASQSIGSSLHWYQQKPDQSPKLLIKYASQSFSGVPSRFSGSGSGTDFTLTINSLEAEDAAAYYCHQSSSLPFTFGPGTKVDIKR
notes: also called positive control Canakinumab
As for B2, the binding result with huIL-1β-His [2] is listed as “binds”.

B3: BsAb17 (bispecific antibody)
heavy: not shown
light: not shown
chain 1: not shown
chain 2: EIVLTQSPDFQSVTPKEKVTITCRASQSIGSSLHWYQQKPDQSPKLLIKYASQSFSGVPSRFSGSGSGTDFTLTINSLEAEDAAAYYCHQSSSLPFTFGPGTKVDIKSSASTKGPSVFPLAPSSKSTSGGTAALGCLVKDYFPEPVTVSWNSGALTSGVHTFPAVLQSSGLYSLSSVVTVPSSSLGTQTYICNVNHKPSNTKVDKKVEPKSC
notes: Atezolizumab heavy (Knob) and light chain; Canakinumab VH-CL-Fc (hole); also called Construct BsAb17
As for B3, the binding result in the experiment with huIL-1β-His [1] is listed as “binds”.

B4: BsAb22 (bispecific antibody)
heavy: not shown
light: not shown
chain 1: not shown
chain 2: B3 chain 2 with K206R
notes: Atezolizumab heavy chain (Fc with F405L) and light chain; Canakinumab VH-CL-Fc (K409R); also called Construct BsAb22
As for B4, in the experiment with huIL-1β-His [1], the binding result was “binds”.

B5: BsAb25 (bispecific antibody)
heavy: not shown
light: EIVLTQSPDFQSVTPKEKVTITCRASQSIGSSLHWYQQKPDQSPKLLIKYASQSFSGVPSRFSGSGSGTDFTLTINSLEAEDAAAYYCHQSSSLPFTFGPGTKVDIKRTVAAPSVFIFPPSDEQLKSGTASVVCLLNNFYPREAKVQWKVDNALQSGNSQESVTEQDSKDSTYSLSSTLTLSKADYEKHKVYACEVTHQGLSSPVTKSFNRGEC
notes: Canakinumab IgG1 heavy chain-(G4S)4-Atezolizumab scFv (VH G44C-(G4S)4-VL Q100C); also called Construct BsAb25
With B5, the binding result (in the experiment with huPD-L1-His [3]; in the experiment with huIL-1β-His [1]; in experiment [4]) was “binds” in each case.

B6: BsAb29 (bispecific antibody)
heavy: not shown
light: B5 light
notes: also called Construct BsAb29
Take B6: the binding result (in experiment [4]; in the experiment with huPD-L1-His [5]; with huIL-1β-Fc; with huPD-L1-Fc; with huIL-1β-His [6]) was “binds” in each case.
